From PMC10087753 (The Febs Journal, 2022)
One block for each molecule: values may come before it.

Columns and labels:
[1] = target: T1, PcCel7D (Phanerodontia chrysosporium, UniProt Q7LIJ0); test: inhibition of pNPL hydrolysis, absorbance of pNP at […] nm; format: biochemical; settings: read-out: K i for lactose (μM) ^b; pNPL as substrate, 0.2 mM lactose; competitive; 10 mM sodium acetate, pH 5.0, 20 °C
T1 sequence (Q7LIJ0 19-510): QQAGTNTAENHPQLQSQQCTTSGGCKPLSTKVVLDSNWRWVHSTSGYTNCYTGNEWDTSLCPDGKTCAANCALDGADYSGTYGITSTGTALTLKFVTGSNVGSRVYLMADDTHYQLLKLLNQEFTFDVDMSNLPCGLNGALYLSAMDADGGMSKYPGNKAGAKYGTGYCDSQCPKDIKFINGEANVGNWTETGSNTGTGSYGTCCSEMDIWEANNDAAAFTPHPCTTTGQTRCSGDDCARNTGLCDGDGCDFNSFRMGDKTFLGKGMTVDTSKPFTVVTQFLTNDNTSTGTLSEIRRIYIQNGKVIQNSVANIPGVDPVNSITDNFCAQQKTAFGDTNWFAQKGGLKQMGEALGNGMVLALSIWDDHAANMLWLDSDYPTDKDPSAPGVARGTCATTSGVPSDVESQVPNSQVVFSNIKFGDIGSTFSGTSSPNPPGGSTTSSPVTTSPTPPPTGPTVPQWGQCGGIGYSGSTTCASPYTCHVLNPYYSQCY

[2] = target: T2, TrCel7A (Trichoderma reesei, UniProt P62694); test: as above; format: biochemical; settings: read-out: K i for lactose (μM) ^b; pNPL as substrate, 0.2 mM lactose; competitive; 10 mM sodium acetate, pH 5.0, 20 °C
T2 sequence (P62694 18-513): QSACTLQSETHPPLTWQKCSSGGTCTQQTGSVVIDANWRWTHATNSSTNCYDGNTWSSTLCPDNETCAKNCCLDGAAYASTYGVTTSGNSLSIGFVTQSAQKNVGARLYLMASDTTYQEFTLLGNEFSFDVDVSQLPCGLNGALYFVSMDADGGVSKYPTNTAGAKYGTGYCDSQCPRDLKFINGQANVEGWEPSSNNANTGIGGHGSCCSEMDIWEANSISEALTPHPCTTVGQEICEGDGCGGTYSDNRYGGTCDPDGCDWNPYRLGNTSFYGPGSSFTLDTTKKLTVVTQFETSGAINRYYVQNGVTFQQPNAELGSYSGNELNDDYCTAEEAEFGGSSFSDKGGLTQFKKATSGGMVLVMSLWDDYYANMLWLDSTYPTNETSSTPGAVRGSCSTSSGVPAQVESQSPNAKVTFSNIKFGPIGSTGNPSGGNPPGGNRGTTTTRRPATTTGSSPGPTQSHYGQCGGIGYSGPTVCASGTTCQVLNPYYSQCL

[3] = target: T3, TrCel7A (Trichoderma reesei, UniProt P62694, D231N); test: intrinsic protein fluorescence quenching titration; format: binding
T3 sequence (P62694 18-513 D231N): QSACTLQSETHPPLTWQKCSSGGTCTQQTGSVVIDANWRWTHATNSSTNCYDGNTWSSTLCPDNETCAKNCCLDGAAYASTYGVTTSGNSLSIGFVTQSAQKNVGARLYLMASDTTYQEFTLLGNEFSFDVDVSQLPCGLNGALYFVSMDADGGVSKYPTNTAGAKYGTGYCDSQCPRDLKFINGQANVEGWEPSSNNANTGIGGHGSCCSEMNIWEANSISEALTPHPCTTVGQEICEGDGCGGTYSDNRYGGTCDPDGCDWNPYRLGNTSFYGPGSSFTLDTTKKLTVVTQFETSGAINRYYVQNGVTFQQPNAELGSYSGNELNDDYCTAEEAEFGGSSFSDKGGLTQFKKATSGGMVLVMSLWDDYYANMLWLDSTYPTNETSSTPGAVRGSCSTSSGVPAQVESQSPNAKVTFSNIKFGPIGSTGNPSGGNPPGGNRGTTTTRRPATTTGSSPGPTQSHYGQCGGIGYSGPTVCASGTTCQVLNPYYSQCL

[4] = target: T1, PcCel7D; test: intrinsic protein fluorescence quenching titration; format: binding
[5] = target: T4, TrCel7A (Trichoderma reesei, UniProt P62694, E229Q); test: intrinsic protein fluorescence quenching titration; format: binding
T4 sequence (P62694 18-513 E229Q): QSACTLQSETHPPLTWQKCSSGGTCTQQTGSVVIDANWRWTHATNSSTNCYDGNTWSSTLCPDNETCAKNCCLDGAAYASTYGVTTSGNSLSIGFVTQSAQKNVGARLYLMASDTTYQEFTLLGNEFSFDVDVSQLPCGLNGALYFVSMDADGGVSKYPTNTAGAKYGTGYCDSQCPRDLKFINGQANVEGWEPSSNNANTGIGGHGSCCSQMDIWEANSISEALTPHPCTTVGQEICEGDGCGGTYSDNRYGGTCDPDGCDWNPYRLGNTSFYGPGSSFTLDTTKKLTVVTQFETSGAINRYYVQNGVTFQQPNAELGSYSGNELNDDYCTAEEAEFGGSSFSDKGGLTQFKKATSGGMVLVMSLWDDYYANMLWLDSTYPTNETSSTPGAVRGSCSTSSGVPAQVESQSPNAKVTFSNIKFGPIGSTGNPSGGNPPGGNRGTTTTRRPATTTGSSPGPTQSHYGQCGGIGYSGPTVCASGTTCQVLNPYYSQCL

[6] = target: T2, TrCel7A; test: inhibition of MUC hydrolysis, fluorometric; format: biochemical
[7] = target: T2, TrCel7A; test: intrinsic protein fluorescence quenching titration; format: binding
[8] = target: T5, TrCel7A (Trichoderma reesei, UniProt P62694, E234Q); test: intrinsic protein fluorescence quenching titration; format: binding
T5 sequence (P62694 18-513 E234Q): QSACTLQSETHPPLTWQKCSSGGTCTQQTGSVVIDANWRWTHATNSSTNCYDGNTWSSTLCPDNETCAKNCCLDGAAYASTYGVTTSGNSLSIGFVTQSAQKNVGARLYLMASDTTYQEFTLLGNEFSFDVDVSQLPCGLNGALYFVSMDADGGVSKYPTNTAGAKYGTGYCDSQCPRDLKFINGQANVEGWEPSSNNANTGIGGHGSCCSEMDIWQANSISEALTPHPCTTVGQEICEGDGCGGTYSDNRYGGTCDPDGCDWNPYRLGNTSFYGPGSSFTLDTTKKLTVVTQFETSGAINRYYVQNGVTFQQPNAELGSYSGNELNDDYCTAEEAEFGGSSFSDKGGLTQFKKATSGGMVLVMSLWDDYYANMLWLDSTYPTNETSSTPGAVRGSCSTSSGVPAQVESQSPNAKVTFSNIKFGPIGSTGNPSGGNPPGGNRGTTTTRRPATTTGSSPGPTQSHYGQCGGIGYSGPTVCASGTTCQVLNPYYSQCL

[9] = substrate: Cc1cc(=O)oc2cc(O[C@@H]3O[C@H](CO)[C@@H](O[C@@H]4O[C@H](CO)[C@@H](O)[C@H](O)[C@H]4O)[C@H](O)[C@H]3O)ccc12; test: purified protein; settings: 50 mM sodium acetate, pH 5.0, 25 °C
[10] = substrate: O=[N+]([O-])c1ccccc1O[C@@H]1O[C@H](CO)[C@@H](O[C@@H]2O[C@H](CO)[C@@H](O)[C@H](O)[C@H]2O)[C@H](O)[C@H]1O; test: purified protein; settings: 50 mM sodium acetate, pH 5.0, 25 °C
[11] = substrate: [H][C@@]1(O[C@H]2[C@H](O)[C@@H](O)[C@H](Oc3ccc([N+](=O)[O-])cc3)O[C@@H]2CO)O[C@H](CO)[C@H](O)[C@H](O)[C@H]1O; test: purified protein; settings: 50 mM sodium acetate, pH 5.0, 25 °C
[12] = substrate: O=[N+]([O-])c1ccc(O[C@@H]2O[C@H](CO)[C@@H](O[C@@H]3O[C@H](CO)[C@@H](O)[C@H](O)[C@H]3O)[C@H](O)[C@H]2O)cc1; test: purified protein; settings: 50 mM sodium acetate, pH 5.0, 25 °C

Ki [1]: 183 ± 16 µM
Ki [2]: 180 ± 16 µM
Molecule: OC[C@H]1O[C@@H](O[C@H]2[C@H](O)[C@@H](O)C(O)O[C@@H]2CO)[C@H](O)[C@@H](O)[C@H]1O (some centres unmarked) [lactose]

Kd [3]: 7.1 ± 0.7 µM
Kd [4]: 110 ± 10 µM
Kd [5]: 4.7 ± 0.4 µM
Ki [6]: 5.6 ± 0.5 µM
Kd [7]: 7.4 ± 0.4 µM
Kd [8]: 3.9 ± 0.4 µM
Molecule: O=[N+]([O-])c1ccccc1O[C@@H]1O[C@H](CO)[C@@H](O[C@@H]2O[C@H](CO)[C@@H](O)[C@H](O)[C@H]2O)[C@H](O)[C@H]1O [oNPC, o-nitrophenyl-β-D-cellobioside]

B1: TrCel7A (Trichoderma reesei) (protein)
chain: QSACTLQSETHPPLTWQKCSSGGTCTQQTGSVVIDANWRWTHATNSSTNCYDGNTWSSTLCPDNETCAKNCCLDGAAYASTYGVTTSGNSLSIGFVTQSAQKNVGARLYLMASDTTYQEFTLLGNEFSFDVDVSQLPCGLNGALYFVSMDADGGVSKYPTNTAGAKYGTGYCDSQCPRDLKFINGQANVEGWEPSSNNANTGIGGHGSCCSEMDIWEANSISEALTPHPCTTVGQEICEGDGCGGTYSDNRYGGTCDPDGCDWNPYRLGNTSFYGPGSSFTLDTTKKLTVVTQFETSGAINRYYVQNGVTFQQPNAELGSYSGNELNDDYCTAEEAEFGGSSFSDKGGLTQFKKATSGGMVLVMSLWDDYYANMLWLDSTYPTNETSSTPGAVRGSCSTSSGVPAQVESQSPNAKVTFSNIKFGPIGSTGNPSGGNPPGGNRGTTTTRRPATTTGSSPGPTQSHYGQCGGIGYSGPTVCASGTTCQVLNPYYSQCL
Km [9]: 12 ± 1 µM
kcat [9]: 0.013 ± 0.001 s⁻¹
kcat/Km [9]: 1080 M⁻¹ s⁻¹

B2: PcCel7D (Phanerodontia chrysosporium) (protein)
chain: QQAGTNTAENHPQLQSQQCTTSGGCKPLSTKVVLDSNWRWVHSTSGYTNCYTGNEWDTSLCPDGKTCAANCALDGADYSGTYGITSTGTALTLKFVTGSNVGSRVYLMADDTHYQLLKLLNQEFTFDVDMSNLPCGLNGALYLSAMDADGGMSKYPGNKAGAKYGTGYCDSQCPKDIKFINGEANVGNWTETGSNTGTGSYGTCCSEMDIWEANNDAAAFTPHPCTTTGQTRCSGDDCARNTGLCDGDGCDFNSFRMGDKTFLGKGMTVDTSKPFTVVTQFLTNDNTSTGTLSEIRRIYIQNGKVIQNSVANIPGVDPVNSITDNFCAQQKTAFGDTNWFAQKGGLKQMGEALGNGMVLALSIWDDHAANMLWLDSDYPTDKDPSAPGVARGTCATTSGVPSDVESQVPNSQVVFSNIKFGDIGSTFSGTSSPNPPGGSTTSSPVTTSPTPPPTGPTVPQWGQCGGIGYSGSTTCASPYTCHVLNPYYSQCY
Km [9]: 210 ± 20 µM
kcat [9]: 0.22 ± 0.01 s⁻¹
kcat/Km [9]: 1050 M⁻¹ s⁻¹
Km [10]: 3200 ± 100 µM
kcat [10]: 0.015 ± 0.002 s⁻¹
kcat/Km [10]: 4.6 M⁻¹ s⁻¹
Km [11]: 5500 ± 400 µM
kcat [11]: 0.17 ± 0.01 s⁻¹
kcat/Km [11]: 31 M⁻¹ s⁻¹
Km [12]: 1300 ± 160 µM
kcat [12]: 0.046 ± 0.0021 s⁻¹
kcat/Km [12]: 35 M⁻¹ s⁻¹
